Holding throughout (test): high-throughput RNA pulldown from lysate on Ni-NTA beads; HRP: 50 mM Tris pH 8, 150 mM NaCl, 1 mM beta-mercaptoethanol, 50 ug/ml BSA, 3 ug/ml yeast RNA, 0.5% heparin; ITC and FP: Tris pH 8, 200 mM KCl, 5% glycerol; MST: 50 mM Tris pH 8, 200 mM NaCl, 1 mM DTT, BSA, heparin, 0.05% Tween 20
What all share (conditions): tags: N-terminal His-eGFP

For data set [1], the target named is T1, GFP-9S library array, motif 4 ND N98D;D124P (synthetic construct, N98D;D124P).
T1 chain: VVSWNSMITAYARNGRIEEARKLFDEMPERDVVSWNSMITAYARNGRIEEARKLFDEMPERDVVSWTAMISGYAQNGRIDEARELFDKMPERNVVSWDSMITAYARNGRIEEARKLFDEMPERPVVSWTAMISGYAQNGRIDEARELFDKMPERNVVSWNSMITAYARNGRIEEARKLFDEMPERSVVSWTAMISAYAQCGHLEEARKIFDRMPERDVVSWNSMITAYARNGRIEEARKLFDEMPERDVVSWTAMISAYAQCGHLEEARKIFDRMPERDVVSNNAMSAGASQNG

In data set [2] the target is T2, GFP-9S library array, motif 4 ND N98I;D124P (synthetic construct, N98I;D124P).
T2 chain: T1 chain with D98I

In data set [3] the target is T3, GFP-9S library array, motif 4 ND N98T;D124F (synthetic construct, N98T;D124F).
T3 chain: T1 chain with D98T, P124F

Data set [4] concerns the target T4, GFP-9S library array, motif 4 ND N98F;D124F (synthetic construct, N98F;D124F).
T4 chain: T1 chain with D98F, P124F

The target of data set [5] is T5, GFP-9S library array, motif 4 ND N98C (synthetic construct, N98C).
T5 chain: T1 chain with D98C, P124D

Positions count from the first letter of the chain named.

Regarding AUUAGACGUGA (ssRNA) [Cy5-rpoA-G], the Kd in data set [1] (label: 5' Cy5) worked out at 157 nM; in data set [2] (label: 5' Cy5) it was 112 nM; in data set [3] (label: 5' Cy5), 160 nM; in data set [4] (label: 5' Cy5) it was 92.1 nM; in data set [5] (label: 5' Cy5) it was 620 nM.
Consider AUUACACGUGA (ssRNA) [Cy5-rpoA], for which the Kd in data set [1] (label: 5' Cy5) came out at 202 nM; in data set [2] (label: 5' Cy5), 132 nM; in data set [3] (label: 5' Cy5) it was 241 nM; in data set [4] (label: 5' Cy5), 76.4 nM; in data set [5] (label: 5' Cy5) it was 491 nM.
Regarding AUUAUACGUGA (ssRNA) [IR-rpoA-U], the Kd in data set [1] (label: 5' IRDye 800CW) was determined as 501 nM; in data set [2] (label: 5' IRDye 800CW) it was 269 nM; in data set [3] (label: 5' IRDye 800CW), 637 nM; in data set [4] (label: 5' IRDye 800CW), 140 nM; in data set [5] (label: 5' IRDye 800CW), 651 nM.
Consider AUUAAACGUGA (ssRNA) [IR-rpoA-A], for which the Kd stood at 341 nM in data set [1] (label: 5' IRDye 800CW); 266 nM in data set [2] (label: 5' IRDye 800CW); 173 nM in data set [3] (label: 5' IRDye 800CW); 200 nM in data set [4] (label: 5' IRDye 800CW); 1290 nM in data set [5] (label: 5' IRDye 800CW).

For orientation: Kd means the free concentration of one partner at which half of the binding sites on the other are occupied at equilibrium, for simple one-to-one binding.

(Values after PMC8809517, “Cofactor-independent RNA editing by a synthetic S-type PPR protein”.)
